Values belong to the binder of their own block, whether it stands above or below them.
Experiments:
[1] = target: human PD-1 protein (Acro, PD1-H5257) (human, UniProt Q15116 25-167); test: competitive ELISA, PD-1 coated, biotin-PD-L1 as labelled ligand
[2] = target: T1, human CTLA-4 on the cell surface (human, UniProt P16410 36-223); test: flow cytometry, CHO-hCTLA-4 cells, batch FACS#3
T1 construct: whole, on cells; also called CHO-hCTLA-4 cells; CHOK1-hCTLA4 cells

[3] = target: T2, human VEGF165-his protein (Acro, Catalog No. VE5-H5248) (human, UniProt P15692-4 27-191); test: ELISA, plate coated with human VEGF165-his
T2 construct: Bought protein; also called hVEGF165-His; VEGFA; not shown: his tag
T2 sequence (P15692 other isoform, or with tags, fused parts or gaps limits assumed): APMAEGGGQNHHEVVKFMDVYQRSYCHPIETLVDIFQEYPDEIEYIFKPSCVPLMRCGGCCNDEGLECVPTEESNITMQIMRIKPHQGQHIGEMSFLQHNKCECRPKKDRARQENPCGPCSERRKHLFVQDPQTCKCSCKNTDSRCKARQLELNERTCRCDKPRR
Protocol: ELISA was used to determine the activity of the trispecific antibodies binding to the PD-1 protein: 1 μg/mL human PD-1 protein (Acro, Catalog No.: PD1-H5221) was used to coat a high-adsorption 96-well ELISA plate and incubated at 4° C. overnight. On the next day, the plate was washed three times with PBST solution and blocked with 1% BSA-PBS solution at 37° C. for 1 hour. At the same time, 3-fold gradient dilutions of the antibody were prepared with 1% BSA-PBS solution, with a starting concentration of 10 nM. The antibodies of each gradient concentration were added to the blocked 96-well ELISA plate at 100 µL/well in triplicate and incubated at 37° C. for 1 hour. The plate was then washed three times with 0.05% PBST solution, and 100 μL/well of HRP-labeled secondary antibody (Sigma, Catalog No.: A0170) diluted at 1:5000 was added to the ELISA plate and incubated at 37° C. for 1 hour. The plate was washed three times with 0.05% PBST solution and developed with TMB. The absorbance of the 96-well ELISA plate at 450 nm was detected by an ELISA reader. The OD₄₅₀ value was fitted using a four-parameter model to calculate the EC₅₀ value of each antibody binding to PD-1.
The binding activity of the trispecific antibodies to VEGFA protein was detected by ELISA method as described in Section 2.1. The used human VEGF165-his protein was purchased from Acro, Catalog No.: VE5-H5248.

[4] = target: T3, Biotinylated Human VEGF165 (Acro, Catalog No. VE5-H82Q0) (human, UniProt P15692-4 27-191, biotinylated (site not stated)); test: flow cytometry: antibody titrated on CHOK1-hCTLA4 cells, then mixture of hPD1-mFc and biotin-hVEGF165; PE streptavidin signal
T3 construct: Bought protein; also called Biotinylated-hVEGF165; Biotin-hVEGF165
T3 sequence (P15692 other isoform, or with tags, fused parts or gaps limits assumed): as above
Protocol: (§1) CHOK1-hCTLA4 cells were obtained by trypsin digestion, washed twice with PBS containing 2% FBS (FACS buffer), and the cell density was adjusted to about 8×10⁵ cells/ml. 200 μL/well of the cells were added to a 96-well U-bottom plate. After centrifugation at 300 g for 5 minutes, the supernatant was discarded and 100 μL of antibody solution serially diluted with FACS buffer was added in triplicate (with starting concentration of 200 nM, 3-fold serial dilution, and the same volume of FACS buffer was used as a negative control). Mixed well and incubated at 4° C. for 60 min. After washing the plate three times with FACS buffer, a mixture consisting of 1 μg/mL hPD1-mFc (Acro, Catalog No.: PD1-H5255) and 1 μg/mL Biotin-hVEGF165 in a 1:1 volume ratio was added to each well at 100 μL/well to detect the simultaneously binding activity of the trispecific antibodies to VEGF and PD-1 after binding to cell surface CTLA-4. […] After washing the plate three times with FACS buffer, 100 μL/well of PBS solution was added to resuspend the cells, and the fluorescence signal was detected on a flow cytometer. The binding activity was fitted using a four-parameter model, and the EC₅₀ value of each antibody was calculated.

[5] = target: T4, hPD1-mFc (Acro, Catalog No. PD1-H5255) (human, UniProt Q15116 25-167); test: flow cytometry: antibody titrated on CHOK1-hCTLA4 cells, then mixture of hPD1-mFc and biotin-hVEGF165; AF647 anti-mIgG signal
T4 construct: Bought protein; also called human PD-1 mouse Fc fusion; not shown: mouse Fc (mFc)
T4 sequence (Q15116 25-167 limits assumed): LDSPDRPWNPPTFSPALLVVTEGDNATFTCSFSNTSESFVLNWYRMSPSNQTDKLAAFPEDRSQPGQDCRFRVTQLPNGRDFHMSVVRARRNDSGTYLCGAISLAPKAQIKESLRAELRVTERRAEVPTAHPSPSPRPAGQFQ
Protocol: as §1

human PD-1 protein (Acro, PD1-H5257), sequence (Q15116 25-167 limits assumed): as above
T1 sequence (P16410 36-223): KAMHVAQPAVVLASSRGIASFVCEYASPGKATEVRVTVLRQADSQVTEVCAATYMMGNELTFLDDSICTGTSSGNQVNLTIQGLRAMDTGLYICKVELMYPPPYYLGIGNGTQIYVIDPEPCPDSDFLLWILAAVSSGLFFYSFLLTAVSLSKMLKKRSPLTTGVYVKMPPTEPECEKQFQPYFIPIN

- IC50 [1]: 0.923 nM
- EC50 [2]: 2.8 nM
- EC50 [3]: 0.111 nM
- EC50 [4]: 1.38 nM
- EC50 [5]: 1.53 nM
B1: HC010-F9 (trispecific antibody, human IgG4 S228P, kappa)
heavy: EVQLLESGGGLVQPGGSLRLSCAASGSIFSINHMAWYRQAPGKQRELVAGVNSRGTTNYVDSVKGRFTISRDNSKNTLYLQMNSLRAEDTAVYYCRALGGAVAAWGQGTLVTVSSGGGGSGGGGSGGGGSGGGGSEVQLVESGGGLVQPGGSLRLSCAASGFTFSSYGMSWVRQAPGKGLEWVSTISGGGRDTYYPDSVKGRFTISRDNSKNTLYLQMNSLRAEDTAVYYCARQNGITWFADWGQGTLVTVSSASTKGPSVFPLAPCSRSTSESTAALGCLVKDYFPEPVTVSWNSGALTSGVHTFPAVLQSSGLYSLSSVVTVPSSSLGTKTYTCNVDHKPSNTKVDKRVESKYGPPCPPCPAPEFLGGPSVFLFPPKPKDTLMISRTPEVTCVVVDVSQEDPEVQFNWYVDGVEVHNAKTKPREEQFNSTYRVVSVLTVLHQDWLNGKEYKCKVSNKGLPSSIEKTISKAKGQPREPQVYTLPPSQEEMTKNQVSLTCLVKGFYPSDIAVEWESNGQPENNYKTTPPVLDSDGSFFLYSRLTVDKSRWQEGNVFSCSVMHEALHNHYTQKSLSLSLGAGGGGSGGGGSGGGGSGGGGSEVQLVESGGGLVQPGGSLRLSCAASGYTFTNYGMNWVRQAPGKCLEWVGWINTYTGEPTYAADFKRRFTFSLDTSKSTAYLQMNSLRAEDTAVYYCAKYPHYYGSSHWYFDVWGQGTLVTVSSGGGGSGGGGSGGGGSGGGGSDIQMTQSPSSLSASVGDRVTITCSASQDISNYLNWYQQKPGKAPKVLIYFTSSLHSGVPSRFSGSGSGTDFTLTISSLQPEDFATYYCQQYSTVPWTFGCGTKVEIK
light: DIQMTQSPSSLSASVGDRVTITCRASESVDNYGISFMNWYQQKPGKAPKLLIYAASNQGSGVPSRFSGSGSGTDFTLTISSLQPEDFATYYCQQSKEVPWTFGGGTKVEIKRTVAAPSVFIFPPSDEQLKSGTASVVCLLNNFYPREAKVQWKVDNALQSGNSQESVTEQDSKDSTYSLSSTLTLSKADYEKHKVYACEVTHQGLSSPVTKSFNRGEC
notes: light: CQ1-3/1-11 VL-kappa; also called H010-F9

- IC50 [1]: 0.837 nM
- EC50 [2]: 6.19 nM
- EC50 [3]: 0.121 nM
- EC50 [4]: 1.37 nM
- EC50 [5]: 2.73 nM
B2: HC010-F10 (trispecific antibody, human IgG4 S228P, kappa)
heavy: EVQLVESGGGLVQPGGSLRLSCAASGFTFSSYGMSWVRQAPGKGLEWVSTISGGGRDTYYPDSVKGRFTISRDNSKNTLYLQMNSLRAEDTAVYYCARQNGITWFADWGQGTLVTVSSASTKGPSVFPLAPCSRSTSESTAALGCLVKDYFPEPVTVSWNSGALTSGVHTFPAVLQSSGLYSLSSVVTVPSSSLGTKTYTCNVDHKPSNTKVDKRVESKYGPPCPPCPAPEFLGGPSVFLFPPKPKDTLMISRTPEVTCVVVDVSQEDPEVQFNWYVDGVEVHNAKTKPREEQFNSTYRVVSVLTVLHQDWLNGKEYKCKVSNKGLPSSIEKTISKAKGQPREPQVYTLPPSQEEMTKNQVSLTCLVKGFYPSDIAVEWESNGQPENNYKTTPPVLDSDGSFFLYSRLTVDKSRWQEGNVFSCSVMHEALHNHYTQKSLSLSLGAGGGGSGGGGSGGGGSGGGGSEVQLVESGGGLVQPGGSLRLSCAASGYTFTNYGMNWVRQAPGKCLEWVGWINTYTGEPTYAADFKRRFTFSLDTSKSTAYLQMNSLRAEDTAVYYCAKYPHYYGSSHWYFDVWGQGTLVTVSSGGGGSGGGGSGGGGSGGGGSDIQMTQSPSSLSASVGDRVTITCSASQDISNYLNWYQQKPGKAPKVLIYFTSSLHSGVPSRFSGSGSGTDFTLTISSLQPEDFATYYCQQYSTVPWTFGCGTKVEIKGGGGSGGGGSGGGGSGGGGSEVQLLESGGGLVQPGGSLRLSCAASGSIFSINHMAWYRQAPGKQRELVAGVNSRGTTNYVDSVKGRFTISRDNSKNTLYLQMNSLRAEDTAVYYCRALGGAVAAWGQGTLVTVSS
light: B1 light
notes: light: CQ1-3/1-11 VL-kappa; also called H010-F10

— patent US20260116960A1 (SHANGHAI HONGCHENG BIOPHARMACEUTICAL, published 2026)
